Reference: article PMC5454392, “Selective BET bromodomain inhibition as an antifungal therapeutic strategy” (Nature Communications, 2017)
Numbered stars: 1 amine (or outer) side, 2 acyl side, 3 side chain; on linkers, the order of the positions; unused ones are H or OH. Square brackets hold non-standard residues; d marks the D form. Ends that are not written are not given here. Arg(Me2a) = CN(C)C(=N)NCCC[C@H](N)C(=O)O; Kac = CC(=O)NCCCC[C@H](N[*:1])C(=O)[*:2]; Lys(Me3) = C[N+](C)(C)CCCC[C@H](N)C(=O)O; Arg(Me2s) = CN=C(NC)NCCC[C@H](N)C(=O)O; Lys(Me2) = CN(C)CCCC[C@H](N)C(=O)O; pS = N[C@@H](COP(=O)(O)O)C(=O)O; Lys(Me) = CNCCCC[C@H](N)C(=O)O; Me2a = not defined here; me2a = not defined here

T1: CaBdf1 BD1 (GST-tagged, wild-type) (Candida albicans (strain SC5314 / ATCC …, UniProt Q5A4W8))
T1 chain: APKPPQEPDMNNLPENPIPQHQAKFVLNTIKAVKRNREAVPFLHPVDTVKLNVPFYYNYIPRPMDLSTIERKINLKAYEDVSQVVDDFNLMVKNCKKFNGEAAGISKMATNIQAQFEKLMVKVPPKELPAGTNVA

T2: CaBdf1 BD2 (GST-tagged, wild-type) (Candida albicans (strain SC5314 / ATCC …, UniProt Q5A4W8))
T2 chain: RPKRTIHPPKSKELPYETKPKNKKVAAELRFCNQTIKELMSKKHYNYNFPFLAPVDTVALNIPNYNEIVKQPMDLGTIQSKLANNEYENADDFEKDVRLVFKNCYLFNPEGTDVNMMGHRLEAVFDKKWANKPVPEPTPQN


What was measured:
[1] = biological target: T1, CaBdf1 BD1 (GST-tagged, wild-type); experiment: histone peptide array (Active Motif MODified), 1 uM GST-tagged bromodomain, anti-GST detection, normalized mean intensity
[2] = biological target: T2, CaBdf1 BD2 (GST-tagged, wild-type); experiment: as above

| Binder | binding score [1] | binding score [2] |
| --- | --- | --- |
| ARTKQTARKSTGGKAPRKQ (A Rme2a T Kac Q T A Rme2s Kme2 S T G G K A P R K Q) | 0.00616 |  |
| PRKQLATKAAR(Me2s)K(Me2)SAPATGG | 0.00254 | 0.00222 |
| ARTKQTARKSTGGKAPRKQ (A R T K Q T A Rme2a K S T G G K A P R K Q) | 0.00326 | 0.00222 |
| ARTKQTARKSTGGKAPRKQ (A R T K Q T A R Kac S pT G G K A P R K Q) | 0.00544 |  |
| ARTKQTARKSTGGKAPRKQ (A R T K Q T A Rme2a Kme2 S pT G G K A P R K Q) | 0.00435 |  |
| ARTKQTARKSTGGKAPRKQ (A Rme2s T Kme1 Q T A Rme2s Kme1 S T G G K A P R K Q) | 0.00326 |  |
| ARTKQTARKSTGGKAPRKQ (A Rme2a T Kme2 Q T A Rme2a Kac S T G G K A P R K Q) | 0.0395 |  |
| ARTKQTARKSTGGKAPRKQ (A R T Kme1 Q T A Rme2a Kac S T G G K A P R K Q) | 0.0257 |  |
| SGRGKGGKGLGKGGAKRHR (S G R G Kac G G Kac G L G Kac G G A K R H R) | 0.0729 | 0.179 |
| SGRGKGGKGLGKGGAKRHR (pS G R G K G G K G L G K G G A K R H R) | 0.00471 | 0.00444 |
| AR(me2s)TK(Ac)QTAR(me2a)K(me2)STGGKAPRKQ (reading uncertain) | 0.00979 |  |
| PRKQLATKAARK(Me3)SAPATGG | 0.00616 | 0.00851 |
| ARTK(Me2)QTARKSTGGKAPRKQ | 0.00181 | 0.00148 |
| A[Arg(Me2a)]T[Lys(Me3)]QTA[Arg(Me2a)][Lys(Me2)]STGGKAPRKQ | 0.00254 |  |
| A[Arg(Me2a)]TK(Ac)QTA[Arg(Me2a)][Lys(Me3)]STGGKAPRKQ | 0.00834 |  |
| ARTKQTARKSTGGKAPRKQ (A Rme2a T Kme2 Q T A Rme2a Kme3 S T G G K A P R K Q) | 0.00254 |  |
| SGRGKGGKGLGKGGAKRHR (S G Rme2s G K G G K G L G K G G A K R H R) | 0.00399 | 0.00666 |
| ARTKQTARKSTGGKAPRKQ (A R T K Q T A R Kme2 S T G G Kac A P R K Q) | 0.0315 |  |
| A[Arg(Me2a)]T[Lys(Me3)]QTAR[Kac]STGGKAPRKQ | 0.0344 |  |
| ARTK(me3)QTAR(me2a)K(me3)STGGKAPRKQ (reading uncertain) | 0.00508 |  |
| ARTKQTARKSTGGKAPRKQ (A Rme2a T Kac Q T A Rme2s Kac S T G G K A P R K Q) | 0.0334 |  |
| ARTKQTARKSTGGKAPRKQ (A Rme2s T Kme1 Q T A Rme2a Kac S T G G K A P R K Q) | 0.0381 |  |
| ARTKQTARKSTGGKAPRKQ (A R T Kme3 Q T A Rme2s Kac S T G G K A P R K Q) | 0.0286 |  |
| ARTKQTARKSTGGKAPRKQ (A Rme2s T Kme3 Q T A R Kme3 S T G G K A P R K Q) | 0.00254 |  |
| AR(Me2a)TK(Me2)QTAR(Me2s)K(Me3)STGGKAPRKQ (reading uncertain) | 0.00145 |  |
| ARTKQTARKSTGGKAPRKQ (A R T Kme2 Q T A Rme2s Kme2 S T G G K A P R K Q) | 0.00218 |  |
| ARTKQTARKSTGGKAPRKQ (A R T Kme3 Q T A Rme2s Kme1 S T G G K A P R K Q) | 0.00471 |  |
| ARTKQTARKSTGGKAPRKQ (A R T Kme1 Q T A Rme2s Kac S T G G K A P R K Q) | 0.0305 |  |

| Binder | binding score [1] | binding score [2] |
| --- | --- | --- |
| ARTKQTARKSTGGKAPRKQ (A Rme2s T Kac Q T A Rme2s K S T G G K A P R K Q) | 0.00363 |  |
| A[Arg(Me2s)]T[Lys(Me2)]QTARKSTGGKAPRKQ | 0.0029 | 0 |
| ARTKQTARKSTGGKAPRKQ (A R T K Q T A R K S pT G G Kac A P R K Q) |  | 0.00999 |
| RKSAPATGGVKKPHRYRPG (R K S A P A T G G V Kac K P H R Y R P G) [H3 26-45] | 0.0344 | 0.0122 |
| ARTKQTARKSTGGKAPRKQ (A R T K Q T A R Kme1 pS T G G K A P R K Q) | 0.00181 |  |
| PDPAK(Ac)SAPAPKKG[pS]KKAVT [H2B 1-19] | 0.00689 | 0.00074 |
| ARTK(Ac)QTAR(me2s)K(Ac)STGGKAPRKQ | 0.0729 |  |
| AR(Me2s)TK(Me3)QTAR(Me2s)K(Me3)STGGKAPRKQ | 0.00653 |  |
| SGRGKGGKGLGKGGAKRHR (S G R G K G G Kac G L G K G G A Kac R H R) | 0.0228 | 0.00999 |
| ARTK(Me)QTAR(Me2a)K(Me2)STGGKAPRKQ (reading uncertain) | 0.0138 |  |
| ARTKQTARKSTGGK(Ac)APRKQ | 0.0319 |  |
| AR(me2a)TK(Ac)QTAR(me2a)K(me2)STGGKAPRKQ (reading uncertain) |  | 0.00703 |
| ARTKQTARKSTGGKAPRKQ (A Rme2s T Kme2 Q T A R Kme3 S T G G K A P R K Q) | 0.00145 |  |
| AR(Me2s)TK(Me3)QTAR(Me2s)K(Ac)STGGKAPRKQ | 0.017 |  |
| A[Arg(Me2a)]T[Lys(Me)]QTA[Arg(Me2a)][Lys(Me2)]STGGKAPRKQ | 0.0029 |  |
| ARTKQTARKSTGGKAPRKQ (A Rme2a T Kme3 Q T A Rme2s Kme3 S T G G K A P R K Q) | 0.00508 |  |
| ARTKQTARKSTGGKAPRKQ (A Rme2a T Kme1 Q T A R Kme2 S T G G K A P R K Q) | 0.00326 | 0.0037 |
| ARTKQTARKSTGGKAPRKQ (A Rme2s T Kme2 Q T A Rme2s Kme1 S T G G K A P R K Q) | 0.00544 | 0.00407 |
| ARTKQTARKSTGGKAPRKQ (A R T K Q T A Rme2a Kac S pT G G K A P R K Q) | 0.00363 |  |
| ARTKQTARKSTGGKAPRKQ (A Rme2s T Kme2 Q T A Rme2s Kac S T G G K A P R K Q) | 0.0239 |  |
| AR(me2s)TK(me2)QTAR(me2s)K(me3)STGGKAPRKQ | 0.00218 |  |
| SGRGKGGKGLGKGGAKRHR (S G Rme2s G K G G Kac G L G K G G A K R H R) | 0.0152 | 0.00777 |
| A[Arg(Me2s)]T[Lys(Me2)]QTAR[Lys(Me)]STGGKAPRKQ | 0.00544 |  |
| ARTKQTARKSTGGKAPRKQ (A R T K Q T A R Kac S T G G K A P R K Q) | 0.0087 | 0.0037 |
| ARTKQTARKSTGGKAPRKQ (A Rme2s T Kme3 Q T A Rme2s Kme1 S T G G K A P R K Q) | 0.00363 |  |
| ARTK(Me3)QTAR(Me2a)K(Ac)STGGKAPRKQ (reading uncertain) | 0.0359 | 0.00888 |
| ARTKQTARKSTGGKAPRKQ (A Rme2s T Kme1 Q T A Rme2s K S T G G K A P R K Q) | 0.00326 |  |
